Molecular target: β2AR-T4L (β2AR with the third intracellular loop replaced by T4 lysozyme, truncated at position 365) (human) (UniProt P07550)
Assay: cell-based or functional assay

High affinity state Ki of (-)-isoproterenol, [3H]-DHA competition binding, β2AR-T4L in HDL particles + 1 µM NB80 (β2AR-T4L alone: 33.5): 0.56 nM | fold increase of the affinity of isoproterenol: 60 fold
B1: Nanobody-80 (Nb80) (VHH, not shown: small tags and cut ends)
VHH: QVQLQESGGGLVQAGGSLRLSCAASGSIFSINTMGWYRQAPGKQRELVAAIHSGGSTNYANSVKGRFTISRDNAANTVYLQMNSLKPEDTAVYYCNVKDYGAVLYEYDYWGQGTQVTVSS
